Common to all, as to test: cell-based or functional assay
Assay [1] deals with Schizosaccharomyces pombe P-factor pheromone receptor (Mam2) (Schizosaccharomyces pombe) (UniProt Q00619).
Assay [2] concerns the target Aga2-HA-PAS40-(G4S)3-CD19-myc yeast surface display fusion protein (CD19.1 ECD displayed on SCASA yeast aAPCs) (synthetic construct, CD19 part modified from human).
For assay [3], the target named is CD19 on the human CD19+ NALM6 B cell precursor leukemia cell line (human) (UniProt P15391).
Chain of UniProt P15391 (P15391 20-556): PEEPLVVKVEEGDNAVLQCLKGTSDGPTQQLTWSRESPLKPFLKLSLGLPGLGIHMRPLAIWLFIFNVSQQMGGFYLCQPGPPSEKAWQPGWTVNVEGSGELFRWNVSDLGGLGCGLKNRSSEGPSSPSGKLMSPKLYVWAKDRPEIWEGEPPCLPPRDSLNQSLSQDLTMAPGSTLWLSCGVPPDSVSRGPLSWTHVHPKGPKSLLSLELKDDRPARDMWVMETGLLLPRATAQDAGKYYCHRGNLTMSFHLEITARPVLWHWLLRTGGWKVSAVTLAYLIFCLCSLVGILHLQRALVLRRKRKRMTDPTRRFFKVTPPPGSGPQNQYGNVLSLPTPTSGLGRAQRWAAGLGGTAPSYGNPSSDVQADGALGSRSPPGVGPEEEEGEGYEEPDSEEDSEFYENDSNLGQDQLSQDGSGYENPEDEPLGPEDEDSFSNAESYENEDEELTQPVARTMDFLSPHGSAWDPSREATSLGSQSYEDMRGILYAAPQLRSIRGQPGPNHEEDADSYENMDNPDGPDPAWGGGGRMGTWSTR

Experimental findings from patent US20260242721A1, “A SYNTHETIC CELLULAR ADVANCED SIGNAL ADAPTER (SCASA) SYSTEM” (Danmarks Tekniske Universitet, priority 2023, published 2026) are described below.

Chain of UniProt Q00619 (Q00619 other isoform, or with tags, fused parts or gaps): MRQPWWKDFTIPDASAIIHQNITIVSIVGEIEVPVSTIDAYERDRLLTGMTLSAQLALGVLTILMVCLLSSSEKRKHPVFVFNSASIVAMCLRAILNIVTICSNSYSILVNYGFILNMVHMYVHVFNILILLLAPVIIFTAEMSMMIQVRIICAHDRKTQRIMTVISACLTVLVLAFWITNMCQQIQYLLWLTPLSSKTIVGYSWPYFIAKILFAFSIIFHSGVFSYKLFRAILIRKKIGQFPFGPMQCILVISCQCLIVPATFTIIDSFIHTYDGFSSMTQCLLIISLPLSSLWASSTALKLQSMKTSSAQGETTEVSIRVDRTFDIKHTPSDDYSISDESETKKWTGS

P-factor (GenScript) (peptide) showed a fold change of CD19 expression (PFUS1 cassette, anti-HA staining), strain DIX60, pH=5, 0-10 µM P-factor in assay [1] of 249 fold.

In assay [2], “anti-CD19 CAR (FMC63-CD8α-4-1BB-CD3ζ) (receptor)” yielded a fold specific activation of CAR+ Jurkat NFAT-Luc cells, yeast PFUS1-CD19 at 0.01 µM α-factor of 3.2 fold; a fold specific activation of CAR+ Jurkat NFAT-Luc cells, yeast PTDH3-CD19 at 0.001 µM α-factor of 27.7 fold; an increase of CAR+ Jurkat NFAT-Luc activation relative to the uninduced condition, yeast PTDH3-CD19 at 0.1 µM α-factor of 10.3 fold; an increase of CAR+ Jurkat NFAT-Luc specific activation relative to the unstimulated condition, yeast PMFA2-CD19 at 0.01 µM α-factor of 15.3 fold. In assay [2], the increase of CAR+ Jurkat NFAT-Luc specific activation relative to the unstimulated condition, yeast PMFA2-CD19 at 0.1 µM α-factor was 14.5 fold; the increase of CAR+ Jurkat NFAT-Luc specific activation relative to the unstimulated condition, yeast PMFA2-CD19 at 1 µM α-factor amounted to 13.6 fold; the increase of CAR+ Jurkat NFAT-Luc specific activation relative to the unstimulated state, yeast PFUS1-CD19 at 1 µM α-factor is 3.1 fold; the maximal fold specific activation of Jurkat NFAT-Luc cells without GPCR stimulation, yeast PMFA2-CD19, 90% CAR+ amounted to 5.5 fold. In assay [2], this substance yielded a maximal fold specific activation of Jurkat NFAT-Luc cells without GPCR stimulation, yeast PPGK1-CD19, 100% CAR+ of 11.5 fold; a maximal fold specific activation of Jurkat NFAT-Luc cells without GPCR stimulation, yeast PTDH3-CD19, 70% CAR+ of 12.8 fold; a maximal specific activation of 100% CAR+ Jurkat NFAT-Luc cells (luciferase), yeast PFUS1-CD19 pre-stimulated with 1 µM α-factor of 4.1 fold; a maximal specific activation of 100% CAR+ Jurkat NFAT-Luc cells (luciferase), yeast PMFA2-CD19 pre-stimulated with 0.01 µM α-factor of 22.3 fold. In assay [2], the maximal specific activation of 100% CAR+ Jurkat NFAT-Luc cells (luciferase), yeast PTDH3-CD19 pre-stimulated with 0.1 µM α-factor was 61.9 fold and the maximal specific activation of CAR+ Jurkat NFAT-Luc cells by yeast PTDH3-CD19 relative to NALM6 worked out at 2.2 fold. In addition, in assay [3], the maximal specific activation by NALM6 relative to any SCASA yeast aAPC without GPCR stimulation stood at 2.2 fold and the peaking activation intensity of Jurkat NFAT-Luc cells co-cultured with NALM6, 90% CAR+ was determined as 28.1 fold.
